# Results: patent US20150359847A1, “METHOD AND COMPOSITION FOR CONFERRING NEUROPROTECTION” (BLOOD SYSTEMS RESEARCH INSTITUTE, priority 2014, published 2015)
# B1: TIMP3: Recombinant tissue inhibitor of matrix metalloproteinase-3, a soluble protein released by MSCs, obtained from Amgen Inc. (protein)
# chain: CTCSPSHPQDAFCNSDIVIRAKVVGKKLVKEGPFGTLVYTIKQMKMYRGFTKMPHVQYIHTEASESLCGLKLEVNKYQYLLTGRVYDGKMYTGLCNFVERWDQLTLSQRKGLNYRYHLGCNCKIKSCYYLPCFVTSKNECLWTDMLSNFGYPGYQSKHYACIRQKGGYCSWYRGWAPPDKSIINATDP
# Tested on: S6 Ribosomal Protein (S235/236) in SH-SY5Y cells
# Test: S6 Ribosomal Protein (S235/236) phosphorylation in SH-SY5Y cells
# Format: cell-based, human
# Conditions: 1 μg/ml TIMP3, 15 mins
# Protocol: SH-SY5Y cells were obtained from ATCC (Cat# CRL-2266, Manassas, Va.) and were cultured in DMEM and 10% FBS up to passage 10. For differentiation of SH-SY5Y cells into a neuronal phenotype, cells were first plated in DMEEM+10% FBS for 24 hrs before exchanging media in DMEM+1% FBS 10 μM retinoic acid. Differentiation was performed for 3 days before experimentation. Hippocampal neurons were prepared according to the protocol by Beaudoin et al. (Nature Protocols 2012; 7(9):1741-1754) with minor modifications. In brief, after trypsin digestion of hippocampi isolated from P1 mouse pups single cell suspensions was created by trituration and plated onto Biocoat™ poly-D-lysine coated 12-well plates (Cat#354470, BD Biosciences, San Jose, Calif.). 2 pups were used per well and cell suspensions were incubated for 10 minutes per well for a total of 6 wells. The serial incubation allowed for variation in cell densities applicable to different experiments but also contributed to the reduction in non-neuronal cells. […]
# Pathscan Antibody™ array kits were purchased from Cell Signaling Technologies (Danvers, Mass.). PathScan® RTK signaling antibody array kit (Fluorescent Readout, Cat#7949) and PathScan™ Akt signaling antibody array kit (Fluorescent Readout, Cat#9700) were performed as per manufacturer's instructions. Imaging was performed on a LI-COR Odyssey™ infrared scanner and pixel densities measured by in house LI-COR Image™ suite software.
# Cell lysates for western blotting were prepared with RIPA buffer (Cat#89900. Thermofisher Scientific, Rockford, Ill.) supplemented with phosphatase inhibitor cocktail 2 (Cat# P5726. Sigma, St Louis, Mo.), phosphatase inhibitor cocktail 3 (Cat# P0044. Sigma, St Louis, Mo.) and complete protease inhibitor (Cat#1862209. Thermofisher Scientific, Rockford, Ill.). […] Protein content was quantified with a Pierce BCA protein assay kit per manufacturer's instructions (Cat#23225. Thermofisher Scientific, Rockford, Ill.).
# Lysates was analyzed in conjuncture with the LI-COR Odyssey™ infra-red imaging system. […]
molecule,measurement,value
B1,"S6 Ribosomal Protein (S235/236) activation, western blot",activates S6 Ribosomal Protein (S^235/236)
same,"S6 Ribosomal Protein (S235/236) phosphorylation, antibody array",phosphorylates mTORC1 pathway target S6 Ribosomal Protein (S^235/236)
